Assay results taken from paper PMC4267727.

Biological target: E2 wild-type (E2wt) scaffold protein without an HIV-1 N-terminal fusion (Geobacillus stearothermophilus)
Test: SEC; Superdex200 gel filtration of E2wt in Solubility Buffer 2.2 (1x PBS, 50 mM L-Glutamine, 50 mM NaCl, 250 mM L-Arginine), 1 ml/min

## E2 wild-type (E2wt) scaffold protein without an HIV-1 N-terminal fusion (domain or fragment)
  stoichiometry N: 60
